Here are results for 2 molecules from article PMC10397247.

Holding throughout (assay): two-hybrid library CCmax;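 also: natural log of median RNA to DNA barcode read ratio; higher means stronger binding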
One experiment deals with T1, APC3323-AA.
T1 chain: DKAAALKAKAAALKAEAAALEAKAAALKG
Conditions: mean of both orientations.

Another experiment addresses T2, APC3881-AA.
T2 chain: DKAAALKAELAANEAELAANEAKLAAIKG
Conditions: mean of both orientations.

In a further experiment the target is T3, APC1987-AA.
T3 chain: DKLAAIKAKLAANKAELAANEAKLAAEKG
Conditions: mean of both orientations.

The target of the next experiment is T4, APC1916-AA.
T4 chain: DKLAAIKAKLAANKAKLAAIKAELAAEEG
Conditions: mean of both orientations.

A further experiment addresses T5, APC4336-AA.
T5 chain: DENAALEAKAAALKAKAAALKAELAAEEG
Conditions: mean of both orientations.

The next experiment concerns the target T6, APC1115-AA.
T6 chain: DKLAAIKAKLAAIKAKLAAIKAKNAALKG

A further experiment has as its target T7, APC2375-AA.
T7 chain: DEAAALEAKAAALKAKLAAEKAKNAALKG
Conditions: mean of both orientations.

Another experiment concerns the target T8, APC222-AA.
T8 chain: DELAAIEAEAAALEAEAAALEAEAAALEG
Conditions: mean of both orientations.

The target of the next experiment is T9, APC2556-AA.
T9 chain: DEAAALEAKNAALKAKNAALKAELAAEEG
Conditions: mean of both orientations.

The next experiment concerns the target T10, APC4100-AA.
T10 chain: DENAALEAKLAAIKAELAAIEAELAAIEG
Conditions: mean of both orientations.

A further experiment addresses T11, APC2981-AA.
T11 chain: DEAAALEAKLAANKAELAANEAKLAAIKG
Conditions: mean of both orientations.

In a further experiment the target is T12, APC2257-AA.
T12 chain: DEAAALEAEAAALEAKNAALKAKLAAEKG
Conditions: mean of both orientations.

In a further experiment the target is T13, APC9291-AA.
T13 chain: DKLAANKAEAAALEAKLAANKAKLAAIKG
Conditions: mean of both orientations.

In the next experiment the target is T14, APC7524-AA.
T14 chain: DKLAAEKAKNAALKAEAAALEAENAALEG
Conditions: mean of both orientations.

A further experiment deals with T15, APC6088-AA.
T15 chain: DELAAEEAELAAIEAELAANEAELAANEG
Conditions: mean of both orientations.

For the next experiment, the target named is T16, APC9182-AA.
T16 chain: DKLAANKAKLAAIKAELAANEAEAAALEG
Conditions: mean of both orientations.

Another experiment concerns the target T17, APC5009-AA.
T17 chain: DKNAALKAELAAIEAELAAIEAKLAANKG
Conditions: mean of both orientations.

A further experiment deals with T18, APC2811-AA.
T18 chain: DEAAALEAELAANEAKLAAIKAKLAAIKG
Conditions: mean of both orientations.

In a further experiment the target is T19, APC8516-AA.
T19 chain: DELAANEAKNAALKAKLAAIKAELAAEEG
Conditions: mean of both orientations.

Another experiment addresses T20, APC2724-AA.
T20 chain: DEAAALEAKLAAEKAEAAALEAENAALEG
Conditions: mean of both orientations.

In another experiment the target is T21, APC3354-AA.
T21 chain: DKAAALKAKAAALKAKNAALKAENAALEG
Conditions: mean of both orientations.

Another experiment addresses T22, APC1242-AA.
T22 chain: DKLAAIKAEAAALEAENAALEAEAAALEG
Conditions: mean of both orientations.

In a further experiment the target is T23, APC8401-AA.
T23 chain: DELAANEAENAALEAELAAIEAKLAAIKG
Conditions: mean of both orientations.

The next experiment deals with T24, APC2474-AA.
T24 chain: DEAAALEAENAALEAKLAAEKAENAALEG
Conditions: mean of both orientations.

The target in another experiment is T25, APC2543-AA.
T25 chain: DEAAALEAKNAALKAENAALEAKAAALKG
Conditions: mean of both orientations.

The target of another experiment is T26, APC5531-AA.
T26 chain: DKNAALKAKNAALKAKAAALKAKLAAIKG
Conditions: mean of both orientations.

For another experiment, the target named is T27, APC3265-AA.
T27 chain: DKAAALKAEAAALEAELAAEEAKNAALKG
Conditions: mean of both orientations.

For the next experiment, the target named is T28, APC542-AA.
T28 chain: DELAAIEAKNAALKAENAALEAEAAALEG
Conditions: mean of both orientations.

A further experiment addresses T29, APC9806-AA.
T29 chain: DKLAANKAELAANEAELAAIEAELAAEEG
Conditions: mean of both orientations.

The next experiment concerns the target T30, APC9141-AA.
T30 chain: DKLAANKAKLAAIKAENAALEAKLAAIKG
Conditions: mean of both orientations.

Another experiment addresses T31, Core_ININ-es_KEEE.
T31 chain: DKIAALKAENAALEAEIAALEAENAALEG
Conditions: mean of both orientations.

On to DKLAAIKAKLAAIKAKLAAIKAKNAALKG [APC1115-AA], for which the interaction score is -1.52 with APC3323-AA; -1.47 with APC3881-AA; -1.74 with APC1987-AA; -1.84 with APC1916-AA; -1.61 with APC4336-AA; -0.803 in the experiment with APC1115-AA. Besides, the interaction score is -1.67 with APC2375-AA; 0.216 with APC222-AA; -1.69 in the experiment with APC2556-AA; 0.913 with APC4100-AA; -1.43 in the experiment with APC2981-AA; -1.42 with APC2257-AA. Further, the interaction score was -1.83 with APC9291-AA; -1.68 with APC7524-AA; -1.12 in the experiment with APC6088-AA; -1.98 with APC9182-AA; -0.451 with APC5009-AA; -1.19 with APC2811-AA. Besides, the interaction score with APC8516-AA was -1.51; in the experiment with APC2724-AA, -1.69; with APC3354-AA it was -1.93; in the experiment with APC1242-AA, -1.35; with APC8401-AA it was -1.04; with APC2474-AA, -1.58. Also, the interaction score was -1.49 with APC2543-AA; -1.86 in the experiment with APC5531-AA; -1.52 with APC3265-AA; -1.93 with APC542-AA; -1.67 with APC9806-AA; -1.58 with APC9141-AA.
In turn, DEIAALEAKNAALKAKIAALKAKNAALKG [Core_ININ-es_EKKK] registered an interaction score in the experiment with Core_ININ-es_KEEE of 2.37.
